Assay results reported in patent publication US20240091164A1.

Molecular target: FcεRIα subunit of the high-affinity IgE receptor (FcεRI) (human) (UniProt P12319)
Experiment: cell-based or functional assay

Chain of FcεRIα subunit of the high-affinity IgE receptor (FcεRI) (human) (P12319 26-257 limits assumed, form in doubt): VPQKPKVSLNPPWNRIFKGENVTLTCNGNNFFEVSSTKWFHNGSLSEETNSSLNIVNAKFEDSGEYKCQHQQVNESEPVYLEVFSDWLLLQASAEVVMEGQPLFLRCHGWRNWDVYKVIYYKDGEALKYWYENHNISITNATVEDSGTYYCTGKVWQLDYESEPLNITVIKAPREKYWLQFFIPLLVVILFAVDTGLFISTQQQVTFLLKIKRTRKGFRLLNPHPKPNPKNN

With “anti-FcεRIα antibody, clone AER-37 (CRA1)” the positive population mean for CD63 was 52.7% and the positive population mean for CD107a was 71.2%.
